For assay [1], the target named is full-length RtcR (S. Typhimurium). Description: SEC.
Assay [2] has the same target. Kind of assay: SEC. The source holds these as a separate data set.

Where “and” joins values, the source holds several entries; their conditions need not be identical. Identical values can stand only once. Like-named read-outs stand apart in the source and are kept apart here.

Take full-length RtcR (natural protein): the stoichiometry N (commonly a count of units in the complex or per binding partner) in assay [1] was 2 and 6; in assay [2], 2 and 6.
